Experimental data from the supplement of paper PMC9170038.

test system: K4 kissing-loop RNA reporter; experiment: apparent KD of K4 kissing-loop reporter; higher = weaker reporter binding; details: Eterna round: R107; input ligand: FMN 200 uM
Method: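 RNA-MaP round R107: designed RNA switches with theophylline, tryptophan, arginine or FMN aptamers are transcribed on-chip within common flanks. They are titrated with a labelled K4 kissing-loop RNA reporter in RNA-MaP buffer (100 mM Tris pH 7.5, 80 mM KCl, 4 mM MgCl2), without ligand or with the indicated ligand. Median apparent KD per design.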
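Also: bound reporter read as fluorescence of individual clusters on recovered sequencing chips by microscopy, with normalized cluster intensities fitted with a binding model.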

Row | Sequence | apparent KD of K4 kissing-loop reporter [nM]
1 | GCCGUAGAUGGAAGGAGCGUGCCUUUCAGUUAUAGUGAUGUUAUAACCGAGGAACGGUUGGCACAGGUAGGUCGCCAUCUACGGC | 178
2 | AAUGUGCAGGGAAGGAGCGUAGUCCAGUGCUGUUGGAGUUAAAUACCAGUGAUGUUGGUUAUACAGGUAGGUCGCCCUAAAGCGC [whbob_Ex_Arginine_B_2th160] | 141
3 | GGCACGGGCUCGGCCGCCACUCCCGCGGGUCGAAAGGUCCGCUACUGAGUGAUGUUCGGUUGGAGGAGGACCGGGAGCCCGUGCC [#2 Exclusion - Tryptophan B Attempt #23 (HarryS)] | 130
4 | UGGAUAUAGUGAUGUUAUAUAGAGAUGGAUACCAGCAAAGAGAAUUGCCCUUGGCAGCCGAAAGAAGUAUCAUUAGAGAAGAAUG [ExTheophyl.Af] | 285
5 | GGCGGCCGCGCGCAAGCGCGGCCGGCCGAUACCAGCGCGACGGCGCGCCCUUGGCAGCGGCGCCGAGUGAUGUUCGGCCUGCCGU [#2 Same State - Theophylline A Attempt #15 (HarryS)] | 151
6 | UAGGGCAUCGCAGGAUAUCCUGCUUAACGUUGGAUUCCAGUGAUGUUGGAAAGCCGGCCUAGGGUAGGAGAAGGGCGGACUUGAA [Riteteve] | 160
7 | UGUGUUGUUUUGAUGUUUGGUGUUUGUUGGCAGGAUAUCGUAGAGGCGAGAAGGGCUUUGUUGCGGUAUGAGUGAUGUUUGUAGG [szzrmullin] | 349
8 | GGAAAUUGAUCAACGCAGUGAUGUUGCGAUACCAGACACAAAGCCGUCCCUUGGCAGCGCGGGACAUUAAUGGAUCUAUGGGUUC [theeternabot_exclusion_KL_Theo_A_26] | 68.5
9 | GAUAUAGUGAUGUUAUAUGGGAAGGAGUUACGAGGACCGGUACGGCCGCCACUCGAAACGAGUGAGGAUUUGGGAGAUUGGGUUU [SSTryptA.R] | 369
10 | UGUGAGCUGUCGACAAAAGUCGACUAAAGCGAGGAUAUGACGAAAGUCAGAAGGCGUCAAUAAUGGAGUGAUGUUCCUGCUCACU [FmnA 9 G29] | 306
11 | CGAGUCCUGAGGAGUGAUGUUCCUCGGCCACGAGGACCGGUACGGCCGCCACUCGUUACUCGGGCUUAGUAGCUAGCACUAAGCU [Quedmaon] | 265
12 | GGAGUUACCUGGGAUACCAGUCGGAGUCUCAGAGCUCGGAGUGAUGUUCUGGGAUGUUUCGGCCCUUGGCAGCUCUGGGACUCCA [#2 Exclusion - Theophylline B Attempt #16 (HarryS)] | 924
13 | AGCCUUACAUCGGCCGCCACUUCCCUGGCAGUGAUGUUGCCGUAGACAAUCAUUCUACCCUGGAGAAGGACCGGGAUGCAGAAAC [theeternabot_sameState_KL_Trp_B_8] | 154
14 | UUUGGAGUGGGAGGAUAUCCUAAUAUGGGUGAUGUUAGCGAUGUUGAAGGUGUAGUGAUGUUAUGCGGAGAAGGCCCACUGUAGA [BDazzled - #19 - Exc. FMN B] | 95
15 | AGAUGGAAUAGAAGGAGCGGCGCCAGUGAUGUUGGAUGCCGCGGGUGAAUCAGAUCAUAGUGCCAGGUAGGUCGCUAUUUCAGCG [Anedin] | 113
16 | AAAAUAAAUAGCAGUCAUGGAGUGAUGUUCCGAGGACCGGUACGGCCGCCACUCGACCAUCAUAAGAUGGAAUGGCGAGACUGCA [#SwitchBubble 22 #K4Early] | 252
17 | UGGAGUUGACGAAAAGUCAACUCCUGGGAAGGAGCGGACGAAAGUCCAGGUAGGUCGCCCACUACCAGUGAUGUUGGUACUCAAA | 178
18 | UGGAGUUGACGAAAAGUCAACUCCUGAGAUACCAGUGACGAAAGUCACCCUUGGCAGCUCACUGGCAGUGAUGUUGCGCGAUAAA [#23 K4 Theophylline A Same State] | 376
19 | GCCGUACGCAUGGAUACCAGUCUACAUCGCAGUGAUGUUGCGUAGUUCAGAUAGAUUGCCGACCCUUGGCAGCCAUGCGUACGGC | 133
20 | AGAACUGUCUUGGAUACCAGUGAUGUUGGUAUCGAUGUGUGAGUGCAAAGCGUCCCACAUCGCCCUUGGCAGCUAAGACUGUUCA [Omei KL Theo B Exc A v4] | 287
21 | GAUGAACUAUUCGAUACCAGACUACAUGAGUGAUGUUCAUGUGUGUCAAUGUCUAUGUCAGUCCCUUGGCAGCGAAUAGUUUAUC [KL-XTheo-B27] | 146
22 | CGAGUGAUGUUCGUUUUUUACUCUUUUUGACAGGAUAUGCGGAAACGCAGAAGGGUCACCUUUGAGUUAAAAGGAGUUAUUUUUU [Ex FMN A 19] | 345

Row | Sequence | apparent KD of K4 kissing-loop reporter [nM]
23 | UCGUCUGUGUGAGGAUAUCCAAGCGAGCUGCGUACAGGUGCGGCGUUUGGAGUGAUGUUCCAGGCAGGAGAAGGCGCACGGGCUU [Esored] | 191
24 | GAAUGGAGUGAUGUUCCAUUAACGAUCCUACGAGGACCGGUACGGCCGCCACUCGUAUUGCAGUGAUGUUGCAACCAGCCGUACU [Exclusion Tryptophan A GF 9] | 111
25 | AUGCUUCAGUAAGGAUAUGGAGGCAGAGUGAAGAUUGUCGUGUAACCGAGUUAAGUGAUGUUUGAUCCAGAAGGUACAUGCGUGU [theeternabot_exclusion_KL_FMN_B_15] | 926
26 | UGCGCUGUGUACUGUAAUGUUAUGCGGGAUACCAGAGUCUUUUUAUUCCCUUGGCAGCUUGAGUGAUGUUUGAUGCCGUUCUUGU [plpkmullin] | 481
27 | GGUAUGGAAGCAACAUCACAAGCCGUACCACGAGGACCGGUACGGCCGCCACUCGAUAACUUGCAGUGAUGUUGCAAGUAAGAAU [(T)''-(K)'-(T)'-(T1)-(T2)-(K1)-(K2)_Design6] | 147
28 | GGUUCUGGUUUGGAGUGAUGUUCUAAGUGGCAGGAUAUGGAGAGAUCCAGAAGGGCCGUUUGUAUCUUUUUUGUGUGGUUUUUUU [Last Minute #2] | 132
29 | AAAUUUAAUAUAUUUAAUUAAUUAUGUGAUACCAGACAUUAAUAAGUCCCUUGGCAGCACAAUGCAGUGAUGUUGCUUAUAAUAA [JR_SSTheophyA_Sub010] | 85.7
30 | AGAGUUAUAUGAGGAUAUGGGAUAGUAACUGAGUGAGUUAUAGUGUAGUUUGUUUAGUGAUGUUAUUUAGAAGGCGUGAGUGAUG [wwwsemullin] | 162
31 | AUGUCGUUAUAGUGAGUGAUGUUCACUGUGCGAGGACCGGUACGGCCGCCACUCGAGAGUGGUGGACACUGAGUCACUCUGACAC [Tryp A Ex t2] | 124
32 | UGGACCUGACUCGAUAAGAGUCAAUGAGAUACCAGCCACGAAAGUGGCCCUUGGCAGCUCUGCCAGUGAUGUUGGUCAAGGUCCU [#SwitchBubble 5 #StaticStem] | 1280
33 | GAAAUCACGGAUGAUACCAGCCAGAACUCUCACAGUGAUGUUGUGCUUAAAUGAUUAGGAGGCCCUUGGCAGCAUACGCUAAUUU [theeternabot_sameState_KL_Theo_B_36] | 324
34 | CCUCACGUAGGACUAGUGAUGUUAGACUACCGAGGACCGGUACGGCCGCCACUCGUCGUACAAGAUAACCUUCCGCCAGUAUACA | 113
35 | AGUCCACUCUAAAGAGUGGACCUAAGGGAUACCAGUGAUGUUGGUCACCCUUGGCAGCCCGCUGUCAUCGAUAAAGAUGGCAGUA | 125
36 | AUUCGUCUCUGAGGAUAUCAGAGGAGAGUGAUGUUCUCCCAUAGCCCAGUGAUGUUGGAUGCUAUCUGAGAAGGCAGUGGGCGAA [Same State FMN B GF 14] | 142
37 | AGGAUGUAGUGAUGUUAUAUAAAAGGUAAACGAGGACCGGUACGGCCGCCACUCGAAGCGGCUGCUAAGAGGGAAAGAAGAGGAA [ExTryptoA.E] | 496
38 | UUAGAGAUCUCAGGAUAUGAGUGAUGUUGGUGUCAAGAUCUGAGAUAGAAUUCUAUCUCAGAUCAAUCAGAAGGGAGAUCUCAUU [AK2.2 Exc FMN B] | 325
39 | GGUAGCAUGGCGGCCGCCACUCUUCAUUAGUGAUGUUAAUGCCGAGUGCGCUAACUCCUACGGGAGAGGACCGGGCCAUGCUACC | 1220
40 | AAAUAGAUCAGUCACCCAGUGAUGUUGGAAGGAGCGUGCGAAAGCACAGGUAGGUCGCCAAAACCUAAGUGGCUGAUCAAAAUAA [#SwitchBubble 4 #K4Early] | 838
41 | GCUAUGGUAGGAAGGAGCGCGGACGGUAUUUGUCGAGUGAUGUUCGAUUCUUUAAUUUGAACGCAGGUAGGUCGCCUACUAUAGC [Arginine B K4 30] | 214
42 | UGUCAUUGGUCGGCCGCCACUAGAAGGUCAAAGACCAUGGAGUGAUGUUCUAAGACGAAAGUCACUAGGACCGGGACCGAUGACU [TrypBS 5 #SwitchBubble #K4Middle] | 1640
43 | AACCACUCGUUACAUCACUAUCGAGUGGAACGAGGACCGGUACGGCCGCCACUCGAUAACUUGCAGUGAUGUUGCAAGUAAGAAU [(T)''-(K)'-(T)'-(T1)-(T2)-(K1)-(K2)_Design9] | 542

same assay, conditions: Eterna round: R107; input ligand: arginine 13.2 mM

Row | Sequence | apparent KD of K4 kissing-loop reporter [nM]
44 | GCCGUAGAUGGAAGGAGCGUGCCUUUCAGUUAUAGUGAUGUUAUAACCGAGGAACGGUUGGCACAGGUAGGUCGCCAUCUACGGC | 90.2
45 | AAUGUGCAGGGAAGGAGCGUAGUCCAGUGCUGUUGGAGUUAAAUACCAGUGAUGUUGGUUAUACAGGUAGGUCGCCCUAAAGCGC [whbob_Ex_Arginine_B_2th160] | 176
46 | GGCACGGGCUCGGCCGCCACUCCCGCGGGUCGAAAGGUCCGCUACUGAGUGAUGUUCGGUUGGAGGAGGACCGGGAGCCCGUGCC [#2 Exclusion - Tryptophan B Attempt #23 (HarryS)] | 91.6
47 | UGGAUAUAGUGAUGUUAUAUAGAGAUGGAUACCAGCAAAGAGAAUUGCCCUUGGCAGCCGAAAGAAGUAUCAUUAGAGAAGAAUG [ExTheophyl.Af] | 221
48 | GGCGGCCGCGCGCAAGCGCGGCCGGCCGAUACCAGCGCGACGGCGCGCCCUUGGCAGCGGCGCCGAGUGAUGUUCGGCCUGCCGU [#2 Same State - Theophylline A Attempt #15 (HarryS)] | 81.1
49 | UAGGGCAUCGCAGGAUAUCCUGCUUAACGUUGGAUUCCAGUGAUGUUGGAAAGCCGGCCUAGGGUAGGAGAAGGGCGGACUUGAA [Riteteve] | 167
50 | UGUGUUGUUUUGAUGUUUGGUGUUUGUUGGCAGGAUAUCGUAGAGGCGAGAAGGGCUUUGUUGCGGUAUGAGUGAUGUUUGUAGG [szzrmullin] | 174
51 | GGAAAUUGAUCAACGCAGUGAUGUUGCGAUACCAGACACAAAGCCGUCCCUUGGCAGCGCGGGACAUUAAUGGAUCUAUGGGUUC [theeternabot_exclusion_KL_Theo_A_26] | 113
52 | GAUAUAGUGAUGUUAUAUGGGAAGGAGUUACGAGGACCGGUACGGCCGCCACUCGAAACGAGUGAGGAUUUGGGAGAUUGGGUUU [SSTryptA.R] | 386
53 | UGUGAGCUGUCGACAAAAGUCGACUAAAGCGAGGAUAUGACGAAAGUCAGAAGGCGUCAAUAAUGGAGUGAUGUUCCUGCUCACU [FmnA 9 G29] | 436
